Values of other authors, collected in PMC2848813.

Target: Hsp33 (Escherichia coli) (UniProt P0A6Y5)

- Kd: 0.6 µM
Substance: Hsp33 (from UniProt P0A6Y5)
